# Experimental data published in patent publication US20140057311A1, “Device For High Throughput Investigations Of Multi-Cellular Interactions” (priority 2010, published 2014).
# Experiments:
# [1] = tested on: Human Lung Cancer Cell Line A549 aggregates; assay: A549 cancer aggregate break-up/migration in collagen gel with HUVEC monolayer, high throughput microfluidic device; type: cell-based
# Protocol: Red colure cells are from Human Lung Cancer Cell Line A549 were transfected with H2B protein (m-Cherry), and partially disassociated, yielding cell aggregates of random sizes, between 40 um and 70 um. This was aspirated through a 100 micrometer strainer, yielding a media with cell aggregates with radii under 100 micrometers. This was poured through a second 40-micrometer filter, yielding a media with A549 aggregates between 40 and 100 micrometers. The cells were then centrifuged at 800 rpm for 2 minutes, and the media aspirated.
# Collagen gel was prepared by adding 9 microliters of 1 M NaOH to 20 microliters of Phosphate Buffered Solution (BD Bioscience), and then adding 46 microliters of ultrapure H2O. Finally, 125 microliters of Type I Rat Tail Collagen at 2.5 mg/mL (BD Biosciences) were added, and mixed thoroughly.
# The A549 aggregates were then mixed with the collagen gel, yielding a mixture of aggregates within the gel. Ten microliters of the gel were then injected into the center channel of the device shown in FIGS. 1 and 2, yielding 36 distinct gel-fluid interfaces within the device.
# Human Umbilical Vein Endothelial Cells were transfected by GFP protein label disassociated, and flowed into the first media channel. Media without cells was added to the second channel. Adding a small bubble of media on each port of the first media channel yielded a hydrostatic pressure gradient, pushing cells to the gel-media interfaces. The pressure gradient was maintained for one hour, before the bubbles were removed. The device was cultured, and imaged at 0, 12, 36, 60, 84, and 108 hours. The endothelial cells were seen to create an endothelial monolayer along the bottom of the media channel, as well as on the gel-media interface.
# In the control group, no drugs were added to the system. In the experimental group, the commercial cancer anti-metastatic drug Iressa (AstraZeneca), an EGFR-TK enzyme blocker, was added to the endothelial cell medium in doses of 100 nM, 500 nM, 1000 nM, 1500 nM, and 2000 nM. […]
# [2] = tested on: dorsal root ganglion (DRG) neurons; assay: DRG axonal outgrowth and turning under slit-2 gradient after 5-FU treatment; type: cell-based, mice
# Protocol: (§1) Primary hippocampal neurons and dorsal root ganglion (DRG) neurons cultured in the devices were obtained from embryonic day 14.5-16.5 mice as per protocols described in detail elsewhere (R. Li, Methods. Cell. Biol., 1998, 57, 167; W. E. Thomas, Life. Sci., 1986, 38, 297; A. V. Kwiatkowski, et al., Neuron, 2007, 56, 441). Cells from micro-dissected cortices were dissociated and resuspended in serum-free media at a final concentration of 10 million cells/mL. The neurons were seeded into the devices (n=10 devices per test condition) immediately after dissociation and cultured for 1-2 days, with serum-free media replaced in all the channels twice a day, before any guidance cue was introduced. All cell cultures were maintained in a humidified incubator at 5% CO2 and 37° C. For netrin-1 studies (FIGS. 11A-11C), hippocampal neurons were transfected using amaxa nucleofection, with a pmax-gfp plasmid cotransfected with a plasmid expressing DCC (deleted in colorectal cancer) receptor (M. J. Galko and M. Tessier-Lavigne, Science, 2000, 289, 1365).
# (§2) Netrin-1 added in the channel was obtained from multiple sources: lab-isolated (T. Serafini, et al., Cell, 1994, 78, 409) netrin-1 (0.1-10 μg/mL), and netrin-1 released from cDNA transfected stable fibroblast cell line (K. Löw, et al., J. Neurosci., 2008, 28, 1099). […] Brain pulp was prepared in the lab from fresh whole mouse brain tissues. Briefly, the brain tissue was homogenized with a rotor stator in a hypotonic solution supplemented with protease inhibitors (protease inhibitor cocktail; Roche, USA), filtered, total protein content measured using a Bradford protein assay, and diluted to […] concentration. […]
# (§3) Phase-contrast, fluorescence and confocal microscopy were used to characterize axonal distribution and quantify axonal turning in 3D collagen gels within the devices. […] The last 100 μm segment along the length of each axon leading to the growth cone was traced with NeuronJ (E. Meijering, et al., Cytometry. Part. A, 2004, 58, 167), and the angle this segment makes with the horizontal line (0°) was measured. […]
# [3] = tested on: hippocampal neurons; assay: Hippocampal axonal turning under guidance cue gradient in 3D collagen gel, spider microfluidic device; type: cell-based, mice
# Protocol: as §1
# Netrin-1 added in the channel was obtained from multiple sources: lab-isolated (T. Serafini, et al., Cell, 1994, 78, 409) netrin-1 (0.1-10 μg/mL), and netrin-1 released from cDNA transfected stable fibroblast cell line (K. Löw, et al., J. Neurosci., 2008, 28, 1099). […] Brain pulp was prepared in the lab from fresh whole mouse brain tissues. Briefly, the brain tissue was homogenized with a rotor stator in a hypotonic solution supplemented with protease inhibitors (protease inhibitor cocktail; Roche, USA), filtered, total protein content measured using a Bradford protein assay, and diluted to […] concentration. The chemorepellant used was Slit-2 (62.5 or 250 ng/mL; R&D Systems, Minneapolis, Minn.)). For chemosensing studies, the medium was removed from all the ports after 24-48 h of cell seeding, and 350 μL medium containing known concentration of guidance cue was introduced in the chemoattractant channel, and 350 μL serum-free media in each of the remaining two channels. For the experiments with netrin-1 being released from fibroblasts, transfected fibroblasts (1×10^5 cells) were seeded in the chemoattractant channel (source), and normal fibroblasts (non-transfected, 1×10^5 cells) were seeded in the left channel (sink). […] Netrin-1 released from the transfected fibroblasts diffuses across the collagen-1 gel and creates a gradient. The medium was changed at regular intervals to maintain chemogradient at all times. The control devices which received no guidance cues were cultured in the same procedure as with test cases.
# as §3, with “devices. Florescent and phase contrast images were acquired with a Nikon TE300 microscope equipped with a Hamamatsu camera and Openlab image acquisition software. Axonal and nuclei staining were performed after fixation with 4% PFA (30 min).” for “devices.”
# [4] = tested on: dorsal root ganglion (DRG) neurons; assay: DRG neuron migration into 3D collagen scaffold under slit-2 gradient; type: cell-based, mice; details: slit-2 250 ng/mL
# Protocol: as §1, §2, §3
# [5] = slit-2 250 ng/mL in the right channel, n=64 axons
molecule,measurement,setting,value
COc1cc2ncnc(Nc3ccc(F)c(Cl)c3)c2cc1OCCCN1CCOCC1 [Iressa],behaviour of A549 cancer aggregates,[1]; 100 nM and 500 nM drug concentrations,cancer aggregates were seen to break up
same,behaviour of A549 cancer aggregates,"[1]; 1000 nM, 1500 nM and 2000 nM drug concentrations",the cancer aggregates stayed intact
same,minimum effective dose,"[1]; drug in endothelial cell medium, keeps A549 aggregates intact",1000 nM
"O=c1[nH]cc(F)c(=O)[nH]1 [5-FU, 5-fluorourasil, reference compound]",DRG cell migration into the scaffold,"[2]; 5-FU 10^−5 M seeded with DRG explants on day 0, 24 h culture",no cell migration into the scaffold was observed
"slit-2: chemorepellant guidance cue Slit-2 (R&D Systems) (protein, UniProt O94813 31-1529, looked up) Slit homolog 2 protein: QCSCSGSTVDCHGLALRSVPRNIPRNTERLDLNGNNITRITKTDFAGLRHLRVLQLMENKISTIERGAFQDLKELERLRLNRNHLQLFPELLFLGTAKLYRLDLSENQIQAIPRKAFRGAVDIKNLQLDYNQISCIEDGAFRALRDLEVLTLNNNNITRLSVASFNHMPKLRTFRLHSNNLYCDCHLAWLSDWLRQRPRVGLYTQCMGPSHLRGHNVAEVQKREFVCSGHQSFMAPSCSVLHCPAACTCSNNIVDCRGKGLTEIPTNLPETITEIRLEQNTIKVIPPGAFSPYKKLRRIDLSNNQISELAPDAFQGLRSLNSLVLYGNKITELPKSLFEGLFSLQLLLLNANKINCLRVDAFQDLHNLNLLSLYDNKLQTIAKGTFSPLRAIQTMHLAQNPFICDCHLKWLADYLHTNPIETSGARCTSPRRLANKRIGQIKSKKFRCSAKEQYFIPGTEDYRSKLSGDCFADLACPEKCRCEGTTVDCSNQKLNKIPEHIPQYTAELRLNNNEFTVLEATGIFKKLPQLRKINFSNNKITDIEEGAFEGASGVNEILLTSNRLENVQHKMFKGLESLKTLMLRSNRITCVGNDSFIGLSSVRLLSLYDNQITTVAPGAFDTLHSLSTLNLLANPFNCNCYLAWLGEWLRKKRIVTGNPRCQKPYFLKEIPIQDVAIQDFTCDDGNDDNSCSPLSRCPTECTCLDTVVRCSNKGLKVLPKGIPRDVTELYLDGNQFTLVPKELSNYKHLTLIDLSNNRISTLSNQSFSNMTQLLTLILSYNRLRCIPPRTFDGLKSLRLLSLHGNDISVVPEGAFNDLSALSHLAIGANPLYCDCNMQWLSDWVKSEYKEPGIARCAGPGEMADKLLLTTPSKKFTCQGPVDVNILAKCNPCLSNPCKNDGTCNSDPVDFYRCTCPYGFKGQDCDVPIHACISNPCKHGGTCHLKEGEEDGFWCICADGFEGENCEVNVDDCEDNDCENNSTCVDGINNYTCLCPPEYTGELCEEKLDFCAQDLNPCQHDSKCILTPKGFKCDCTPGYVGEHCDIDFDDCQDNKCKNGAHCTDAVNGYTCICPEGYSGLFCEFSPPMVLPRTSPCDNFDCQNGAQCIVRINEPICQCLPGYQGEKCEKLVSVNFINKESYLQIPSAKVRPQTNITLQIATDEDSGILLYKGDKDHIAVELYRGRVRASYDTGSHPASAIYSVETINDGNFHIVELLALDQSLSLSVDGGNPKIITNLSKQSTLNFDSPLYVGGMPGKSNVASLRQAPGQNGTSFHGCIRNLYINSELQDFQKVPMQTGILPGCEPCHKKVCAHGTCQPSSQAGFTCECQEGWMGPLCDQRTNDPCLGNKCVHGTCLPINAFSYSCKCLEGHGGVLCDEEEDLFNPCQAIKCKHGKCRLSGLGQPYCECSSGYTGDSCDREISCRGERIRDYYQKQQGYAACQTTKKVSRLECRGGCAGGQCCGPLRSKRRKYSFECTDGSSFVDEVEKVVKCGCTRCVS","percentage of axons that turned away from the high concentration, 250 ng/mL versus 62.5 ng/mL","[3]; increasing slit-2 from 62.5 ng/mL to 250 ng/mL, p<0.001",tripled
same,chemorepellent effect on hippocampal axonal turning,"[3]; slit-2 62.5 ng/mL, n=51 axons",did not exhibit similar strong repellent characteristics
same,percentage of axons in Q1 (towards guidance cue),[3]; [5],18.2±4.5%
same,percentage of axons in Q3 (away from guidance cue),[3]; [5],42.6±9.1%
same,enhancement of axonal turning down the gradient relative to controls which received no cues,"[3]; slit-2 250 ng/mL, p<0.001",3.4 fold
same,"DRG neuron migration down the gradient, percentage in Q3",[4],74±12.5%
same,increase in DRG neuron migration down the gradient relative to controls,[4]; p<0.001 vs. controls,5 fold
same,increase in DRG neuron migration down the gradient relative to 62.5 ng/mL slit-2 gradient,[4]; p<0.01,2.7 fold
same,percentage of DRG axons repelled,"[2]; slit-2 250 ng/mL in right hand channel after 24 h 5-FU, p<0.03 vs. controls",70±14.2%
same,inhibition of DRG neuron axonal turning into Q1 relative to control cultures,"[2]; slit-2 250 ng/mL, p<0.05 vs. controls",56%
